± gives the standard deviation of the averaged measurements.
Tested on: Saccharomyces cerevisiae
Assay: protein stability index of tFT-peptide fusion (C-terminal peptide) (PSI (0-1 scale)); higher = more stable (slower turnover)
Settings: temperature: 30 C
Experimental: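 MPS profiling in S. cerevisiae of the yeast C-terminome library: the last 12 aa of each annotated ORF are fused to the C-terminus of a sfGFP-mCherry timer, after a GGGS linker. Cells are FACS-sorted into 8 mCherry/sfGFP bins and deep-sequenced. PSI runs from 0 (unstable) to 1 (stable); wild type and das1Δ backgrounds, two technical replicates each.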

[1] = genetic background: das1 deletion

Row | Sequence | protein stability index [1] | protein stability index (genetic background: wild type)
1 | IKDAIKNGTGLL [MET31 C-terminal 12 aa] | 0.677 ± 0.0075 | 0.678 ± 0.014
2 | KAEASEAAHDEL [CPR5 C-terminal 12 aa] | 0.695 ± 0.0055 | 0.676 ± 0.038
3 | NPFEYENFINIE [YOR263C C-terminal 12 aa] | 0.7418 ± 0.0062 | 0.721 ± 0.052
4 | AYLLFYTIRQVN [UBP8 C-terminal 12 aa] | 0.366 ± 0.012 | 0.14 ± 0.011
5 | DVKPQENGNDSS [REG1 C-terminal 12 aa] | 0.71 ± 0.014 | 0.705 ± 0.037
6 | PLGVQFLDTFRR [DSC2 C-terminal 12 aa] | 0.718 ± 0.013 | 0.736 ± 0.051
7 | EEFINKLVKSMN [RPL7A C-terminal 12 aa] | 0.698 ± 0.029 | 0.705 ± 0.097
8 | SGETSDIIFRNY [ADK2 C-terminal 12 aa] | 0.74 ± 0.023 | 0.786 ± 0.012
9 | NILVIVYELLLG [YOS1 C-terminal 12 aa] | 0.215 ± 0.023 | 0.203 ± 0.013
10 | AFLKIFENAMPN [ADD37 C-terminal 12 aa] | 0.725 ± 0.019 | 0.678 ± 0.0089
11 | ARMLARECRRHM [CDC23 C-terminal 12 aa] | 0.7022 ± 0.00087 | 0.698 ± 0.054
12 | NFTTNEYFIHTS [YNL226W C-terminal 12 aa] | 0.7352 ± 0.0013 | 0.737 ± 0.018
13 | SKADSYRSVIRH [DLT1 C-terminal 12 aa] | 0.667 ± 0.037 | 0.675 ± 0.023
14 | FVYKGVRKPKRN [SEN15 C-terminal 12 aa] | 0.752 ± 0.033 | 0.778 ± 0.1
15 | KTVSPNWEVKEL [CYM1 C-terminal 12 aa] | 0.6828 ± 0.0036 | 0.702 ± 0.019
16 | LKDNLAKPKTRR [VBA2 C-terminal 12 aa] | 0.715 ± 0.0088 | 0.708 ± 0.031
17 | TDIEPSAKRQKK [RPF2 C-terminal 12 aa] | 0.776 ± 0.048 | 0.695 ± 0.087
18 | LAPLQFSGIVRS [YDR274C C-terminal 12 aa] | 0.6773 ± 0.0022 | 0.682 ± 0.045
19 | FYHVFDEPRYYL [CWH43 C-terminal 12 aa] | 0.7524 ± 0.0054 | 0.7087 ± 0.0018
20 | IKNSSLAVLHST [YKL162C C-terminal 12 aa] | 0.705 ± 0.021 | 0.205 ± 0.019
21 | VHKFGWSLSFSP [POR2 C-terminal 12 aa] | 0.701 ± 0.017 | 0.681 ± 0.038

Row | Sequence | protein stability index [1] | protein stability index (genetic background: wild type)
22 | DHDVSLEEVINI [MCY1 C-terminal 12 aa] | 0.722 ± 0.034 | 0.706 ± 0.02
23 | WKLAKLQIDEAL [SNX41 C-terminal 12 aa] | 0.693 ± 0.0081 | 0.6896 ± 0.0063
24 | WQTLVMILQESG [NPL4 C-terminal 12 aa] | 0.392 ± 0.0077 | 0.444 ± 0.021
25 | DDDDDDDGQITA [YHR131C C-terminal 12 aa] | 0.677 ± 0.027 | 0.6663 ± 0.004
26 | QNYPIVSFSRVI [OSW1 C-terminal 12 aa] | 0.7236 ± 0.0058 | 0.685 ± 0.012
27 | IHFGETSNYSFD [SMC5 C-terminal 12 aa] | 0.722 ± 0.02 | 0.698 ± 0.017
28 | KVTSANEHTSAV [PEX27 C-terminal 12 aa] | 0.689 ± 0.011 | 0.697 ± 0.013
29 | GGSRGGFRGGRR [GAR1 C-terminal 12 aa] | 0.685 ± 0.041 | 0.707 ± 0.041
30 | RRLKNKQRTRFQ [YNR021W C-terminal 12 aa] | 0.7264 ± 0.0013 | 0.698 ± 0.023
31 | PLALFYSHLILL [YGR151C C-terminal 12 aa] | 0.6 ± 0.019 | 0.27 ± 0.016
32 | KKARKMPTWVKR [MRPS9 C-terminal 12 aa] | 0.693 ± 0.032 | 0.65752 ± 7.3e-05
33 | KHGLNDWIVGQK [YPL225W C-terminal 12 aa] | 0.712 ± 0.021 | 0.745 ± 0.035
34 | ADARDKFVDLYN [ADD66 C-terminal 12 aa] | 0.696 ± 0.027 | 0.708 ± 0.1
35 | AGIRKRDWDSTQ [RFM1 C-terminal 12 aa] | 0.717 ± 0.02 | 0.691 ± 0.055
36 | SPYDWFRNTETP [DER1 C-terminal 12 aa] | 0.726 ± 0.035 | 0.737 ± 0.0089
37 | DWEAIDAQTIKL [FAT1 C-terminal 12 aa] | 0.746 ± 0.0075 | 0.768 ± 0.021
38 | NENLSNELQPSL [AME1 C-terminal 12 aa] | 0.678 ± 0.009 | 0.759 ± 0.072
39 | SVSVQVKWLYSA [YER107W-A C-terminal 12 aa] | 0.657 ± 0.012 | 0.159 ± 0.017
40 | KVSPADAAKKAL [RPS26A C-terminal 12 aa] | 0.704 ± 0.0096 | 0.718 ± 0.02
41 | LYFLVKSFLSIV [HMX1 C-terminal 12 aa] | 0.668 ± 0.14 | 0.282 ± 0.12
42 | DILGFKIAPRSA [YGR210C C-terminal 12 aa] | 0.682 ± 0.049 | 0.7073 ± 0.0013

Row | Sequence | protein stability index [1] | protein stability index (genetic background: wild type)
43 | EGVGCRYPVVLI [YDR467C C-terminal 12 aa] | 0.7038 ± 0.0063 | 0.666 ± 0.019
44 | LKILRQKMNHQN [ATG1 C-terminal 12 aa] | 0.686 ± 0.013 | 0.207 ± 0.042
45 | IYYKSQNWRREC [YBR219C C-terminal 12 aa] | 0.707 ± 0.045 | 0.169 ± 0.0069
46 | YALKRNAFKLLK [CRD1 C-terminal 12 aa] | 0.682 ± 0.011 | 0.691 ± 0.02
47 | IAEENSSTESLF [CIS1 C-terminal 12 aa] | 0.709 ± 0.0088 | 0.726 ± 0.065
48 | YKLGPGEDTATK [DPL1 C-terminal 12 aa] | 0.707 ± 0.023 | 0.702 ± 0.032
49 | KYYETVGKADII [AIM36 C-terminal 12 aa] | 0.68805 ± 0.00047 | 0.697 ± 0.025
50 | HFQYKGKPSRRF [BUB1 C-terminal 12 aa] | 0.693 ± 0.012 | 0.685 ± 0.035
51 | ETLAKLREQGLM [TOM70 C-terminal 12 aa] | 0.6797 ± 0.0058 | 0.692 ± 0.015
52 | LHVISKVAGKLF [SBH1 C-terminal 12 aa] | 0.703 ± 0.022 | 0.656 ± 0.014
53 | HKGNGTDKVFVF [AIM33 C-terminal 12 aa] | 0.7139 ± 0.001 | 0.693 ± 0.017
54 | FIRKIYSAIKVE [TMN2 C-terminal 12 aa] | 0.385 ± 0.012 | 0.268 ± 0.016
55 | IGKQKCFIIEMR [MSY1 C-terminal 12 aa] | 0.6688 ± 0.00094 | 0.679 ± 0.0098
56 | YEPTDWECTDAP [YJR096W C-terminal 12 aa] | 0.7254 ± 0.0027 | 0.708 ± 0.06
57 | CWENVRKTRAAK [PSO2 C-terminal 12 aa] | 0.692 ± 0.0083 | 0.6966 ± 0.005
58 | ARGYVNVMDNIQ [SEC16 C-terminal 12 aa] | 0.6727 ± 0.0025 | 0.678 ± 0.042
59 | VGFAVMALMDEH [YKE4 C-terminal 12 aa] | 0.703 ± 0.052 | 0.7046 ± 0.0017
60 | NVGKQLSNEIIY [PRP28 C-terminal 12 aa] | 0.695 ± 0.045 | 0.686 ± 0.042
61 | SEGLQFLQREKK [MSE1 C-terminal 12 aa] | 0.711 ± 0.011 | 0.681 ± 0.011
62 | VTRAAESLGFTV [MIP6 C-terminal 12 aa] | 0.6997 ± 0.0036 | 0.69562 ± 4.2e-05
63 | DIFDPVDFVSFF [OAF3 C-terminal 12 aa] | 0.772 ± 0.033 | 0.752 ± 0.034

Row | Sequence | protein stability index [1] | protein stability index (genetic background: wild type)
64 | EECYLHSESFGY [FRE7 C-terminal 12 aa] | 0.68 ± 0.028 | 0.664 ± 0.028
65 | EFEILDAKKEKD [PIM1 C-terminal 12 aa] | 0.699 ± 0.0047 | 0.681 ± 0.056
66 | LLCFRPTRGCGP [YCL041C C-terminal 12 aa] | 0.7091 ± 0.0046 | 0.687 ± 0.013
67 | TASGEDSHLLKQ [BRL1 C-terminal 12 aa] | 0.669 ± 0.029 | 0.689 ± 0.026
68 | ACDNSGLIGIFQ [VPS15 C-terminal 12 aa] | 0.723 ± 0.02 | 0.681 ± 0.069
69 | SEVKGYSKLNIV [ASI3 C-terminal 12 aa] | 0.695 ± 0.026 | 0.668 ± 0.035
70 | REVREIHEMYCK [YKR012C C-terminal 12 aa] | 0.696 ± 0.034 | 0.6885 ± 0.0035
71 | AWDKFKLQNDIN [SWA2 C-terminal 12 aa] | 0.736 ± 0.015 | 0.698 ± 0.03
72 | KTQDYGKKYNSG [SIZ1 C-terminal 12 aa] | 0.69 ± 0.018 | 0.727 ± 0.0097
73 | LSFFGILKYCFL [TSC3 C-terminal 12 aa] | 0.6491 ± 0.0031 | 0.618 ± 0.027
74 | IIEEKVRNYLNK [RIB5 C-terminal 12 aa] | 0.696 ± 0.061 | 0.685 ± 0.01
75 | EELKKLSNPDMN [CUP9 C-terminal 12 aa] | 0.713 ± 0.059 | 0.686 ± 0.0076
76 | TSAFNKLHIVEE [YAK1 C-terminal 12 aa] | 0.712 ± 0.024 | 0.67 ± 0.045
77 | EEKKKKKIAESK [TIM50 C-terminal 12 aa] | 0.681 ± 0.06 | 0.64 ± 0.044
78 | DQLLALYEDGLL [AHC2 C-terminal 12 aa] | 0.7371 ± 0.0043 | 0.72 ± 0.043
79 | ATFFRYLSNIFT [AGP3 C-terminal 12 aa] | 0.723 ± 0.0077 | 0.698 ± 0.0078
80 | REETEKLNINKD [YAR1 C-terminal 12 aa] | 0.71 ± 0.014 | 0.66 ± 0.067
81 | KILDEINLDRIK [HEM3 C-terminal 12 aa] | 0.689 ± 0.0094 | 0.681 ± 0.052
82 | ELANILESDITL [CIN1 C-terminal 12 aa] | 0.70881 ± 0.00043 | 0.712 ± 0.022
